According to publication PMC2836974 (Molecular Biology of the Cell, 2010):

What was measured:
[1] = molecular target: T1, C-terminal-truncated Rap1 (amino acids 1-169), GST fusion, loaded with mGppNHp (Dictyostelium discoideum, UniProt P18613 1-169); experiment: guanine nucleotide dissociation inhibition
T1 sequence: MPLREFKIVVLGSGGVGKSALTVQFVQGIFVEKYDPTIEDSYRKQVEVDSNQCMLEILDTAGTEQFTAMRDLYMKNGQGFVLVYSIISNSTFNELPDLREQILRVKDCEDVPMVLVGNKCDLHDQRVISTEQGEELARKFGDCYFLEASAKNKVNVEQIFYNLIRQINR

[2] = molecular target: RasG, GST fusion, loaded with mGppNHp (Dictyostelium discoideum, UniProt P15064 1-189); experiment: guanine nucleotide dissociation inhibition
Chain of RasG, GST fusion, loaded with mGppNHp (P15064 whole entry, the tested form may be a part): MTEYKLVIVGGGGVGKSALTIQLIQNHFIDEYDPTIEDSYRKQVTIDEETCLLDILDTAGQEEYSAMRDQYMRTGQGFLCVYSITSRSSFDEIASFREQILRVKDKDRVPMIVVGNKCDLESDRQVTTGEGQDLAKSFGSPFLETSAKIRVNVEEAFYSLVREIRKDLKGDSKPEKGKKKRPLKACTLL

B1: PI3K2-RBD (RBD domain of PI3K2, amino acids 757-918) (domain or fragment)
chain: GHIQAELEIFELIGTSFTRVLDQGQEVVSFRRDFAQFRLSNFTSTRNDLSQMIYVSSEPLPLTIPNKITIMVLLPGDGKIIKRVDCCPNSSVGDVKKEIFKKFAMIDRVHTQGKTQDDFVLKVTGFREYILCIHELGNLTSRQRFYPTGSGGDFSLMDYDYI
- Kd [1]: 40 µM
- Kd [2]: 24 µM
